B1: OR4K15 (parent)
chain: GUUAACGGUCAUAGGCCAUGGAAACUAGGAGCACCAUUUCGCUGCCAGUGAAGAAAUGAACAAAGAAAAUCUGGGCCAGGCAGGCAUCAAAAGAAAUAGUCUUGCGCUCAACCAGAAAGUCUGUAAUCAUUUUAAGGGUA

Variants of: B1
Assay: self-cleavage, relative activity (ratio to wild type); higher = more cleavage; in vitro, sequencing; the parent is a self-cleaving ribozyme

Variant	self-cleavage
A51G U72A	0.13
A51G A134G	1.55
A51G A134C	1.4
A51G A89C	1.6
A52U U102A	0.36
A52G A116U	0.12
A52G A134G	1.25
A51G U132C	0.81
A51G U132A	1.68
A51G G104A	0.03
G50A A95U	1.28
A51G G80A	0.36
G50A A66U	0.67
A52C A95G	1.94
A51U U108C	0.02
G53A A111G	0.02
A51G U102C	2.58
A51G U100G	1.63
A52U A94U	1.94
A51G U103A	0.32
A51G U103G	0.05
A51C U108C	0.01
U49C U124A	0.48
A52G A60U	0.9

Variant	self-cleavage
A52G A60G	1.32
G50U A56G	1.63
G50U U120C	1.29
G50U A82U	0.23
A52G G75A	0.23
U49C U120G	1.33
A51G A125G	0.97
A51G A125U	1.72
A51G A60U	1.68
A52G A62U	1.2
A52G A62G	1.19
G53A A89U	2.31
A52U A59U	1.99
A51U A56G	0.93
A51G C71A	0.89
U49G U87C	1.48
G53U A60U	1.71
A52G C77A	1.2
U49C G80A	0.21
U49C G80U	0.11
G50U U127C	1.29
G50A C113A	0
A52U U122C	0.74
U49G A67C	1.97

Variant	self-cleavage
A52G A78U	0.47
A52G U122G	1.94
A52G U122A	0.76
U49C U132C	1.45
U49C U132G	0.91
U49C C77U	2.23
A51U G93A	1.71
A51G A95U	0.89
U49C G99U	0.28
A51G A114U	0.08
G53A U100C	2.52
U49C G83U	0.71
A52G U124C	1.18
A52G U124A	1.03
G53A A86G	1.83
A52U U124G	0.84
A51G A69G	1.24
A51G A69U	1.41
A51U U57C	1.58
A51G A91C	1.97
A51G A91G	0.5
U49C U130C	0.77
A52C A116G	0.64
U49C G138C	1.54

Variant	self-cleavage
G53A G119U	2.11
A51U C128A	0.45
A52G U120C	1.16
A52U A89G	1.56
U49G G75A	0.09
G50U C121A	2.92
G50U A96G	2.5
A51U A64U	1.15
G50U U132C	1.23
A52G U103C	0.45
A51U A116G	0.37
A51G C109U	0.4
A52G A110C	0.26
A52G A110U	1.17
A51G A63U	1.83
A51G A63G	1.17
A52U U57C	1.45
A51U G106A	0.03
U49C U133C	1.76
U49C U133A	1.29
A52U G99A	0.22
A51G G136U	2.08
A51G U122C	0.6
A51G U70A	1.23

Variant	self-cleavage
A52U C113U	0.06
A52U A66U	1.48
A52U A66G	1.8
U49G A51G	0.95
G50C C85U	1.4
A52G A89C	2.11
A52G A68G	1.5
A52G A68U	1.66
A51G U127G	1.9
G53A G136U	2.03
A51G U120C	0.85
U49C U70C	0.59
A52C A82G	0.55
A51U A118G	0.6
A51C A59G	1.73
G50U U103C	1.23
U49C A134G	1.38
A51G A135G	1.7
A51C A94G	2.16
A51C A110U	0.82
A51C U102A	0.84
A51G G123A	2.08
A51G A98U	2.81
G50A A51G	1.82

Variant	self-cleavage
A52G A94U	2.01
A52G A94G	1.99
G50U G53A	2.2
G50A A64G	1.22
A52C A114G	0.25
U49C U100A	0.63
U49C U100G	1.72
U49C U100C	2
A52C A55U	1.72
G50C A56G	1.42
U49G A98G	0.14
A51G A86G	1.46
A52G C85U	0.87
A52G A95C	0.6
A52U G137A	1.58
A51G A90G	1.29
A52G C88U	1.39
U49G U131C	1.56
A51G A55G	0.97
A51G A55U	1.2
A52G A129U	0.71
A52G A129G	1.3
A51C A82G	0.67
A52G C71U	0.44

Variant	self-cleavage
A51U U97C	1.37
U49G A56G	1.64
A51G A140G	1.62
A51G A140U	1.35
A51G U124A	1.04
G50U A125U	2.34
A51G U139C	1.69
A52G A63G	1.33
A52U A117G	1.11
A51G A59G	0.89
A52U A54U	1.62
G53U A54U	1.67
A52C A89G	1.02
A52G A86G	1.41
G50U A63G	0.92
A51G A92U	2.09
A51G A92G	1.45
A51U A78C	0.2
A51U A78G	0.26
A52U	0.8
A52C	0.57
A52G	1.11
A52G A56C	0.99

Source: the RNAGym collection of RNA variant scans (doi:10.7554/elife.90254)
